Experiments:
[1] = molecular target: SF2/ASF (wild type) (Homo sapiens (Human)) (UniProt Q07955)
[2] = molecular target: myelin basic protein (MBP)

Km for phosphorylation of SF2/ASF [1]: 0.07 µM | Vmax for phosphorylation of SF2/ASF [1]: 0.45 pmol per min | Km for phosphorylation of MBP [2]: 5.8 µM | Vmax for phosphorylation of MBP [2]: 0.02 pmol per min
Substance: SR protein-specific kinase, SRPK1 (enzyme)

Reference: patent US5559019
